In patent US20230087600A1 (Bristol-Myers Squibb, published 2023):

T1: human IL-10 receptor (IL-10R) on T cells and B cells of human whole blood (human, UniProt Q13651 22-578; Q08334 20-325)
T1 sequence (looked up) 1: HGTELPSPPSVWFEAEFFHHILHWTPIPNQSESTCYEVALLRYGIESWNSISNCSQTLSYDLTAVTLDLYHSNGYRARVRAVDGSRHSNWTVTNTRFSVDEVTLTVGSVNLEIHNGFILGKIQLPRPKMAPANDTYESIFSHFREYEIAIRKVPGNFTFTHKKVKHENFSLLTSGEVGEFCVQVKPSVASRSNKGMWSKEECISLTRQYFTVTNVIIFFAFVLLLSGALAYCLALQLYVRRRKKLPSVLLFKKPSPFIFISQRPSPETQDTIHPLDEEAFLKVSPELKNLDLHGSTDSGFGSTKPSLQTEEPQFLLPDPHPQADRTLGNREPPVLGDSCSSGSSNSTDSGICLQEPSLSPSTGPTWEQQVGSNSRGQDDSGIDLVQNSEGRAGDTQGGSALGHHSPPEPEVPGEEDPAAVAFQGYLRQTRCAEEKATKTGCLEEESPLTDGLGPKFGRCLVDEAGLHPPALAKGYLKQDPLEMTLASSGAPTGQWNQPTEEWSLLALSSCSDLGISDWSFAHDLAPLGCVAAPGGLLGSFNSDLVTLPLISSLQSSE
T1 sequence (looked up) 2: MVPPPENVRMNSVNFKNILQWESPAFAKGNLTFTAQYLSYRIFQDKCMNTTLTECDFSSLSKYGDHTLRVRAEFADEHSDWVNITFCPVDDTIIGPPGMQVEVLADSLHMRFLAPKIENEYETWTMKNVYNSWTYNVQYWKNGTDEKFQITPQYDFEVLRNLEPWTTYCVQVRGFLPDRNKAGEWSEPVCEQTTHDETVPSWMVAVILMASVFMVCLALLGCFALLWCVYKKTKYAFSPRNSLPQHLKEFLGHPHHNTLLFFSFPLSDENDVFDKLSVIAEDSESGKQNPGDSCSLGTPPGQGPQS

B1: Fc-IL-10 (human IgG1.3f Fc domain - GGGGSSGGGGSGGGGSGGGGS linker - wildtype human IL-10) (Fc fusion)
chain: DKTHTCPPCPAPEAEGAPSVFLFPPKPKDTLMISRTPEVTCVVVDVSHEDPEVKFNWYVDGVEVHNAKTKPREEQYNSTYRVVSVLTVLHQDWLNGKEYKCKVSNKALPAPIEKTISKAKGQPREPQVYTLPPSREEMTKNQVSLTCLVKGFYPSDIAVEWESNGQPENNYKTTPPVLDSDGSFFLYSKLTVDKSRWQQGNVFSCSVMHEALHNHYTQKSLSLSPGGGGGSSGGGGSGGGGSGGGGSSPGQGTQSENSCTHFPGNLPNMLRDLRDAFSRVKTFFQMKDQLDNLLLKESLLEDFKGYLGCQALSEMIQFYLEEVMPQAENQDPDIKAHVNSLGENLKTLRLRLRRCHRFLPCENKSKAVEQVKNAFNKLQEKGIYKAMSEFDIFINYIEAYMTMKIRN
B2: wildtype human IL-10 (ligand)
chain: SPGQGTQSENSCTHFPGNLPNMLRDLRDAFSRVKTFFQMKDQLDNLLLKESLLEDFKGYLGCQALSEMIQFYLEEVMPQAENQDPDIKAHVNSLGENLKTLRLRLRRCHRFLPCENKSKAVEQVKNAFNKLQEKGIYKAMSEFDIFINYIEAYMTMKIRN

Target: T1, human IL-10 receptor (IL-10R) on T …
Experiment: cell-based or functional assay

Row | STAT3 phosphorylation (pY705), flow cytometry, CD3+ T cells in human whole blood, EC50 [pM] | STAT3 phosphorylation (pY705), flow cytometry, CD19+ B cells in human whole blood, EC50 [pM] | Binder
1 | 222 | 352 | B1
2 | 47.7 | 116 | B2
